The text below walks through data of the nanobody polyreactivity screen of Harvey et al. (2022).

The series can be described thus: yeast display, Sf9 membrane polyspecificity reagent, FACS + sequencing; frameworks hold sequencing errors. In outline:
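A nanobody's polyreactivity label depends on the gate it was sorted from. Yeast display cells were stained with 10% biotinylated, detergent-solubilized Sf9 membrane reagent for 1 hour at 4 °C, enriched on streptavidin microbeads and sorted by FACS. The low and high (top ~1%) gates were set on anti-HA fluorescence for expression and streptavidin fluorescence for reagent binding.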
For the sequence “QVQLVESGGGLVQAGGSLRLSCAASGSTFQGKAMGWYRQAPGKERELVATINNDGSTYYADSVKGRFTISRDNAKNTVYLQMNSLKPEDTAVYYCAADVHRVVLEYDYWGQGTQVTVSS”, the “polyreactivity (PSR sort gate)” value is recorded as “low polyreactivity”. Regarding “QVQLVESGGGLVQAGGSLRLSCAASGSTFQGNAMGWYRQAPGKERELVAAISTSGGRTRYADSVKGRFTISRDKAKNTVYLQMNSLKPEDTAVYHCATTYWYGKRPKMYYWGQGTQVTVSS”, the “polyreactivity (PSR sort gate)” value is “high polyreactivity”. The entry for “QVQLVESGGGLVQAGGSLRLSCAASGSTFQHYAMGWYRQAPGKERELVAAITNTGGSTYYADSVKGRFTISRDNAKNTVDLQMNSLKPEDTAVYYCATVGRRYGYPGDYWGQGTQVTVSS” is “low polyreactivity”. “QVQLVESGGGLVQAGGSLRLSCAASGSTFQINAMGWYRQAPGKEREFVAAITVSSGSTYYADSVKGRFTISRDNAKNTVYLQMNSLKPEDTAVYYCAADYWGQGTQVTVSS”: the “polyreactivity (PSR sort gate)” value is recorded as “low polyreactivity”. The entry for “QVQLVESGGGLVQAGGSLRLSCAASGSTFQLNAMGWYRQAPGKERELVAAISVRGGSTYYADSVKGRFTISRDTAKNTVYLQMHSLKPEETAVYYCATDSLYFLFAGDAVVRRPSYYWGQGTQVTVSS” is “high polyreactivity”; for “QVQLVESGGGLVQAGGSLRLSCAASGSTFQPYAMGWYIQAPGKEREFVATISGSAGSTYYADSVKGRFKISRDNAKNTVYLQMNSLKPEDTAVYYCNADSGWFGYDYWGQGTQVTVSS” it is “low polyreactivity”; for “QVQLVESGGGLVQAGGSLRLSCAASGSTFQPYAMGWYRQAPGKEREFVATISGSAGSTYYADSVKGRFKISRDNAKNTVYLQMNSLKPEDTGVYYCNARPARKSLDYDYWGQGTQVTVSS” it is “low polyreactivity”. On to “QVQLVESGGGLVQAGGSLRLSCAASGSTFQPYAMGWYRQSPGKEREFVATISGSAGSTYYADSVKGRFKISRDNAKNTVYLQMNSLKPEDTAVYYCNADSGWFGYDYWGQGTQVTVSS”, for which the “polyreactivity (PSR sort gate)” value is listed as “low polyreactivity”.

Turning to “QVQLVESGGGLVQAGGSLRLSCAASGSTFQRNAMGWYRQAPGKERELVAAITSRGGSTYYADSVKGRFTISRDNAKNTVSLQMNSLNPEDTGVYYCAALTWARSRNGTYDYWGPGTQVTVSS”, the “polyreactivity (PSR sort gate)” value is “high polyreactivity”. Consider “QVQLVESGGGLVQAGGSLRLSCAASGSTFQRYAMGWYRQAPGKERELVAAITWSGGSTKYADSVKGRFTISRDNAKNTVYLQMNSLKPEDTAVYYCAATPGRGGGYNYWGQGTQVTVSS”, for which the “polyreactivity (PSR sort gate)” value is recorded as “low polyreactivity”.

As to “QVQLVESGGGLVQAGGSLRLSCAASGSTFQSYAMGWYRQAPGKERELVAAISTSDTDRTYYADSVKGRFTISRDNAKNTVYLQMNSLKPEDTAVYYCNADGYSHGDWYGYWGQGTQVTVSS”, the “polyreactivity (PSR sort gate)” value was “low polyreactivity”. Regarding “QVQLVESGGGLVQAGGSLRLSCAASGSTFQTYAMGWYRQAPGKERELVAAITSGGSTNYADSVKGRFTISRDNAKNTVYLQMNSLKPEDTAVYYCAVRQIYQTSDHRLQYDYWGQGTQVTVSS”, the “polyreactivity (PSR sort gate)” value was “low polyreactivity”. With “QVQLVESGGGLVQAGGSLRLSCAASGSTFQTYAMGWYRQPPGKERELVAALNWRSGSTYYADSVKGRFTISRDNATNTVYLLMTSVKPEDTAVYDCARRSTGYTFDVSSMDYWGQGTQVTLSS”, the “polyreactivity (PSR sort gate)” value is “low polyreactivity”. The entry for “QVQLVESGGGLVQAGGSLRLSCAASGSTFQWNTMGWYRQAPGKERELVARITGGGGSTYYADSVKGRFTISRDNAKNTVYLQMNSLKPEDTAVYYCNAAIFGRYEYWGQGTQVTVSS” is “low polyreactivity”. With “QVQLVESGGGLVQAGGSLRLSCAASGSTFQWYTMGWYRQAPGKERECVAAISRSGGRTYYADSVKGRFTISRDNAKNTVYLQMNSLKPVDTAVYYCAKYYYLYWSSQRDYWGQGTQVTVSS”, the “polyreactivity (PSR sort gate)” value is given as “high polyreactivity”.

For the sequence “QVQLVESGGGLVQAGGSLRLSCAASGSTFQWYVMGWYRQAPGKERELVAAITWSGGSTYYADSVKGRFTISRDNAKNTVYLQMNSLKPEDTAVYYCNAVFWIWNAGYDYWGQGTQVTVSS”, the “polyreactivity (PSR sort gate)” value is “low polyreactivity”. The entry for “QVQLVESGGGLVQAGGSLRLSCAASGSTFQYNAMGWYRQAPGKERELVAVISGSGSRTYYADSVKGRFTISRDNSKNTVYLQMNSLKPEDTAVYYCAKQRGGQPRSSTYYYWGQGTQVTVSS” is “high polyreactivity”. On to “QVQLVESGGGLVQAGGSLRLSCAASGSTFQYNAMVGYIQAPGKERELVAAISRGSSTKYADSVKGRFTISRDNAKNTVYLQMNSLKPEDTAVYYCAVDTRPSHRTRAYYYWGQGTQVTVSS”, for which the “polyreactivity (PSR sort gate)” value is on record as “high polyreactivity”. For the sequence “QVQLVESGGGLVQAGGSLRLSCAASGSTFQYNDMGWYRQAPGKERELVAAISSSGGSTSYADSVKGRFTISRDNAKNTVYLQMNSLKPEDTAVYYCAASYPGYHLYRDDYWGQGTQVTVSS”, the “polyreactivity (PSR sort gate)” value is listed as “low polyreactivity”.

“QVQLVESGGGLVQAGGSLRLSCAASGSTFRAYAMGWYRQAPGKERELVAAISKRGGSTYYADSVKGRFTISRDNAKYTVYLQMNSLKPEDTAVYYCNAATRSPFDYWGQGTQVTVSS”: the “polyreactivity (PSR sort gate)” value is recorded as “high polyreactivity”. The result for “QVQLVESGGGLVQAGGSLRLSCAASGSTFRFNAMGWYRQAPGKEREFVAAIRFTGGSTYYADSVKGRFTISRDNAKNTVYLQMNSLKPEDSAVYYCNNADEYSTVEYDYWGQGTQVTVSS” reads “low polyreactivity”; that for “QVQLVESGGGLVQAGGSLRLSCAASGSTFRFNAMGWYRQAPGKEREFVAAISTSGGSTYYADSVKGRFTISRDNAKNTVYLQMNSLKPEDTAVYYCATRRRIRSSFYYDNDYWGQGTQVTVSS”, “high polyreactivity”. “QVQLVESGGGLVQAGGSLRLSCAASGSTFRFYAMGWYRQAPGKERELVAAISSGGSSTYYADSVKGRFTISRDNAKNTVYLQMNSLKPEDTAVYYCAADSYVVRWRERDYWGQGTQVTVSS”: the “polyreactivity (PSR sort gate)” value is given as “low polyreactivity”. With “QVQLVESGGGLVQAGGSLRLSCAASGSTFRFYAMGWYRQAPGKERELVAAITGSGGRTYYADSVKGRFTISRDNAKNTVYLQMNSLKPEDTAVYYCSARAYWLTGLTFSYKYNYWGQGTQVTVSS”, the “polyreactivity (PSR sort gate)” value is listed as “high polyreactivity”. For the sequence “QVQLVESGGGLVQAGGSLRLSCAASGSTFRFYAMGWYRQAPGKERELVAAITWRGGRTYYADSVKGRFTISRDNAKNTVYLQMNRLKPEDTAVYYCAGGRGWQSQIPAKYYYWGQGTQVTVSS”, the “polyreactivity (PSR sort gate)” value is “high polyreactivity”. Consider “QVQLVESGGGLVQAGGSLRLSCAASGSTFRGYAMGCYRQAPGKEREFVASISLSGGTDYADSVKGRFTISRDNAKNTVYLQMNSLKPEDTADYYCAAGYPAVSDSIEHNFWGQGTQVTVSS”, for which the “polyreactivity (PSR sort gate)” value is reported as “low polyreactivity”. The result for “QVQLVESGGGLVQAGGSLRLSCAASGSTFRGYAMGWYRQAPGKERELVAAISRSGGSTYYADSVKGRFTSSRDNAKNTVYLQMNSLKPEDTGVYYCAKRTSGYYWQWFDYCGQGTQVTVSS” reads “high polyreactivity”; that for “QVQLVESGGGLVQAGGSLRLSCAASGSTFRGYAMGWYRQAPGKERELVAAITGSGDRTRYADSVKGRFTISRDNAKNTVYLQMNSLKPEDTAVYYCAKVWPHWAYYSWGQGTQVTVSS”, “high polyreactivity”; that for “QVQLVESGGGLVQAGGSLRLSCAASGSTFRGYAMGWYRQEPGKEREFVASISLSGGSTYYADSVKGRFTISRDNAKYTVYLQMNSLKPEDSAVYYCAARARGYGWRGDYWRQGTQVTVSS”, “low polyreactivity”. The entry for “QVQLVESGGGLVQAGGSLRLSCAASGSTFRGYVMGWYRQAPGKERELVAAISRGGGSTYYADSVKGRFTISRDNAKNTVYLQMNSLKPEDTAVYYCATDYSGRQPGKYGYWGQGTQVTVSS” is “high polyreactivity”; for “QVQLVESGGGLVQAGGSLRLSCAASGSTFRGYVMGWYRQAPGKERELVAVISYNGGSTYYADSVKGRFTISRDNAKNTVYLQMNSLKPEDTAVYYCAATYFFLYTSWDEYWGQGTQVTVSS” it is “low polyreactivity”. “QVQLVESGGGLVQAGGSLRLSCAASGSTFRHYAMGWYRQAPGKERELVAAISYSGSRTYYADSVKGRFTISRDNAKNTVYLQMNSLKPEDTAVYYCNVNLQGRYSDKYDYWGQGTQVTVSS”: the “polyreactivity (PSR sort gate)” value is “high polyreactivity”. In the case of “QVQLVESGGGLVQAGGSLRLSCAASGSTFRINAMGWYRQAPGKERELVAAITRGGSTNYADSVKGRFTISRDNAKNTVYLQMNSLKPEDTAVYYCAAGLYSWSGYASYNSAYGYWGQGTQVTVSS”, the “polyreactivity (PSR sort gate)” value is “low polyreactivity”. The result for “QVQLVESGGGLVQAGGSLRLSCAASGSTFRIYAMGWYRQAPGKERELVARISWNGGRTYYADSVKGRFTISRDNAKNTVYLQMNSLKPEDTAVYYCNARSQGWYYFPDNDYWGQGTQVTVSS” reads “high polyreactivity”; that for “QVQLVESGGGLVQAGGSLRLSCAASGSTFRKYAMGWYRQAPGKEREFVAAITWSTGTTYYADSVKGRFTISRDNAKNTVYLQMNSLKPEDTAVYYCAADSQPPHELYESIEHESWGQGTQVTVSS”, “low polyreactivity”. On to “QVQLVESGGGLVQAGGSLRLSCAASGSTFRKYGMGWYRQAPGKERELVARITSSTGTTYYADSVKGRFTISRDNAKNTVYLQMNSLKPEDTAVNYCNARVRYREWGLYYYWGQGTQVTVSS”, for which the “polyreactivity (PSR sort gate)” value was “high polyreactivity”. In the case of “QVQLVESGGGLVQAGGSLRLSCAASGSTFRLNARGWYRQAPGKERELVASIRWSVGITYYADSVKGRFTISRDNAKNTVYLQMNSLKPEDTAVYYCATRDTTWRYYYWGQGTQVTVSS”, the “polyreactivity (PSR sort gate)” value is on record as “high polyreactivity”. The result for “QVQLVESGGGLVQAGGSLRLSCAASGSTFRLYAMGWYRQAPGKERELVAAISSGGTTKYADSVKGRFTISRDNAKNTVYLQMNSLKPEDTAVYYCNRRARSYADDYWGQGTQVTVSS” reads “high polyreactivity”; that for “QVQLVESGGGLVQAGGSLRLSCAASGSTFRLYAMGWYRQAPGKERELVASITTGGSTYYADSVKGRFTISRDNAKNTVYLQMNSLKPEDTAVYYCAAEEYWEMDYWGQGTQVTVSS”, “low polyreactivity”. Regarding “QVQLVESGGGLVQAGGSLRLSCAASGSTFRNYAMGWYRQAPGKERELVAAITKRGGTTYYADSVKGRFTISRDNAKNTVYLQMNSLKPEDTAVYYCAARVKGQWNTYDYWGQVTQVTVSS”, the “polyreactivity (PSR sort gate)” value is reported as “high polyreactivity”.

As to “QVQLVESGGGLVQAGGSLRLSCAASGSTFRPNAMGWYRQAPGKERELVAAITSGGSTYYADSVKGRFTISRDNAKNTVYLQMNSLKPEDTAVYYCNKDKFWSYPVQVNLDYWGQGTQVTVSS”, the “polyreactivity (PSR sort gate)” value is recorded as “low polyreactivity”.
